Target: metastin receptor (OT7T175) stably expressed on CHO cells
Experiment: cell-based or functional assay

Row | Specific Activity: EC50 of the test compound based on EC50 of Metastin (45-54); agonist activity by change in intracellular calcium ion level (Fluo-4 NW, FLIPR) in receptor-expressing CHO cells | Substance
1 | 2.2 | Compound No. 972: dimethylaminoethylureido-D-Tyr-Hyp-Asn-Thr-Phe-AzaGly-Leu-Arg(Me)-Trp-NH2 (peptide)
2 | 0.4 | Compound No. 973: iso-butylureido-D-Tyr-Hyp-Asn-Thr-Phe-AzaGly-Leu-Arg(Me)-Trp-NH2 (peptide)
